The source of these data is patent publication US20150246947A1 (BAXALTA, published 2015).

What is called IC50 is the concentration that inhibits the measured activity by half. Lower therefore signals greater potency.

Values joined by “and” are separate entries in the source; they are usually repeats but may differ in a detail not shown here. Equal values may be shown once. Non-standard residues stand in square brackets, D forms with d. Tle = CC(C)(C)[C@H](N)C(=O)O

First the molecules themselves.
B1: JBS3235 (peptide)
peptide: Ac-EYYVSAGWYDYMTDTYTEFE-NH2
B2: JBS3296 (peptide)
peptide: Ac-DVHVSAGWYDYNKDIYYEFT-NH2
B3: JBS3218 (peptide)
peptide: Ac-EYYVSAGWYDYNNDIYYEFE-NH2
B4: JBS3223 (peptide)
peptide: Ac-ESYVSAGWYDYNTDTYYEFF-NH2
B5: JBS3193 (peptide)
peptide: Ac-TGLVEAGWYDYNFDVYREFT-NH2
B6: JBS3232 (peptide)
peptide: Ac-EYYVTAGWYDYNTDTYYEFE-NH2
B7: JBS3196 (peptide)
peptide: Ac-YGLVSAGWYDYNFDHYMEFT-NH2
B8: JBS3195 (peptide)
peptide: Ac-TGLVSAGWYDYNNDVYREFT-NH2
B9: JBS3194 (peptide)
peptide: Ac-TGLVSAGWYDYNNDTYREFT-NH2
B10: JBS3201 (peptide)
peptide: Ac-YGLVEAGWYDYNNDTYMEFT-NH2
B11: JBS3236 (peptide)
peptide: Ac-EYYVEAGWYEYNTDNYYPFE-NH2
B12: JBS3274 (peptide)
peptide: Ac-EVIVSAGWYDYNNDIYYEFW-NH2
B13: JBS3221 (peptide)
peptide: Ac-YGIVSAGWYDYNTDTYYEFY-NH2
B14: JBS3260 (peptide)
peptide: Ac-EGYVSAGWYDYNQDIYFEFA-NH2
B15: JBS3281 (peptide)
peptide: Ac-YVEVSAGWYDYNTDTYSEFW-NH2
B16: JBS3284 (peptide)
peptide: Ac-HIYVTAGWYDYNTDTYHEFE-NH2
B17: JBS3297 (peptide)
peptide: Ac-DNYVSAGWYDYNTDTYYEFY-NH2
B18: JBS3258 (peptide)
peptide: Ac-YGIVSAGWYDMNNDYYFEFY-NH2
B19: JBS3314 (peptide)
peptide: Ac-EYYVSAGWYDYNTDTYYEFT-NH2
B20: JBS3202 (peptide)
peptide: Ac-TGL[Tle]SAGWYDYNFDTYREFT-NH2
SMILES: CC(=O)N[C@H](C(=O)NCC(=O)N[C@@H](CC(C)C)C(=O)N[C@H](C(=O)N[C@@H](CO)C(=O)N[C@@H](C)C(=O)NCC(=O)N[C@@H](Cc1c[nH]c2ccccc12)C(=O)N[C@@H](Cc1ccc(O)cc1)C(=O)N[C@@H](CC(=O)O)C(=O)N[C@@H](Cc1ccc(O)cc1)C(=O)N[C@@H](CC(N)=O)C(=O)N[C@@H](Cc1ccccc1)C(=O)N[C@@H](CC(=O)O)C(=O)N[C@H](C(=O)N[C@@H](Cc1ccc(O)cc1)C(=O)N[C@@H](CCCNC(=N)N)C(=O)N[C@@H](CCC(=O)O)C(=O)N[C@@H](Cc1ccccc1)C(=O)N[C@H](C(N)=O)[C@@H](C)O)[C@@H](C)O)C(C)(C)C)[C@@H](C)O
B21: JBS3203 (peptide)
peptide: Ac-TGL[Tle]SAGWYDYNFDHYMEFT-NH2
B22: JBS3191 (peptide)
peptide: Ac-YGLVSAGWYDYNFDVYREFT-NH2
B23: JBS3192 (peptide)
peptide: Ac-TGLVEAGWYDYNFDTYREFT-NH2
B24: JBS3197 (peptide)
peptide: Ac-TGLVEAGWYDYNFDHYMEFT-NH2
B25: JBS3198 (peptide)
peptide: Ac-TGLVSAGWYDYNNDHYMEFT-NH2

The target in one test is T1, human Protein S (UniProt P07225 42-676).
T1 chain: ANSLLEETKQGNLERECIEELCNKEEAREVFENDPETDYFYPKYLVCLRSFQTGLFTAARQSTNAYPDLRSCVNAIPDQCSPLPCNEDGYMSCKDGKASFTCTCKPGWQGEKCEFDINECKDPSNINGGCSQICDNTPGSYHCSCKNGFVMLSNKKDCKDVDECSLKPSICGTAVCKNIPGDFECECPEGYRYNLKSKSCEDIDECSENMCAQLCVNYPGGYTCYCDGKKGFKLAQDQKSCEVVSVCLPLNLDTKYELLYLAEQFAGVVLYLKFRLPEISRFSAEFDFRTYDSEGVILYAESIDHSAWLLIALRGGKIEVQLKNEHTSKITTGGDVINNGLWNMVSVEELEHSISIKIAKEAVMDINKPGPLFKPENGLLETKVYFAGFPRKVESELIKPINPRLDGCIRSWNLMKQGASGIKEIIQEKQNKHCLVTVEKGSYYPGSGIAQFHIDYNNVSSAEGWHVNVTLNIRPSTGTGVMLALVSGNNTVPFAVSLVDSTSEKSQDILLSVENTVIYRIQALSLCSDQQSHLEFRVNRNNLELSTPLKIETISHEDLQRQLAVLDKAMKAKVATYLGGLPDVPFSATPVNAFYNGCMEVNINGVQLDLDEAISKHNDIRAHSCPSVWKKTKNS
The test can be described thus: LANCE competition. In a few lines: (§1)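 A homogeneous time-resolved FRET (LANCE) competition format paired europium-labelled Protein S and ULight-labelled streptavidin with a biotinylated tracer peptide, against which unlabelled test peptide was titrated three-fold. With final concentrations of 10 nM Protein S, 100 nM streptavidin and 300 nM tracer in 50 µl, or 2 nM Protein S and 60 nM tracer when a Tecan F500 was used, samples stood 1 hour at room temperature. Emission was read at 665 nm with excitation at 340 nm. Non-linear regression of these signals gave the IC50.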
(In TR-FRET formats the signal depends on donor and acceptor labels being close together.)
Take B1: the IC50 is 1.4 nM.
Still for that read-out and setting: to B2 belongs 2.2 nM; to B3, 0.9 nM; to B4, 0.7 nM.
Still for that read-out and setting: for B5 the value was 2.7 nM.
Still for that read-out and setting: for B6 the value was 0.9 nM; for B7, 2.5 nM; for B8, 2.1 nM.
For B9, the IC50 amounted to 2 nM.
Turning to B10, the IC50 is 1.8 nM.
B11 displayed an IC50 of 2.6 nM.
The same measure, in the same setting: to B12 belongs 1 nM.

Another test addresses T2, human Protein S (human, UniProt P07225 42-676).
T2 construct: Called 'full length Protein S' / 'human full-length Protein S'; It was coated on plates (ELISA), Eu-labeled (LANCE) or immobilized on a chip (Biacore); also called PS; full length Protein S
T2 sequence: T1 chain
As to the kind of experiment: Biacore and LANCE IC50. (In general: Surface plasmon resonance follows binding to a sensor surface in real time, without labels.)
In the case of B1, the binding result is reported as “binds”.
As for B13, the binding result is listed as “binds”.
Regarding B14, the binding result is listed as “binds”.
As to B15, the binding result is reported as “binds”.
With B2, the binding result is “binds”.
On to B3, for which the binding result is “binds”.
Take B4: the binding result is “binds”.
With B16, the binding result is reported as “binds”.
As for B6, the binding result was “binds”.
Turning to B17, the binding result is on record as “binds”.
Still for that read-out and setting: to B18 belongs “binds”.
In the case of B11, the binding result was “binds”.
Consider B19, for which the binding result is “binds”.
On to B12, for which the binding result is “binds”.

The target of another test is T1, human Protein S. As to the kind of experiment: LANCE competition. This is another data set of the same source. In a few lines: as §1
B14 came in with an IC50 of 1.6 nM.
For B15, the IC50 is 1.7 nM and 2.3 nM.
In turn, B16 showed an IC50 of 1.3 nM. That is a single-digit nanomolar value.
B17 yielded a concentration for half-maximal inhibition (IC50) of 1 nM. This IC50 and that of the molecule before are within 1.5-fold of each other.
Regarding B18, the IC50 is 0.8 nM and 0.9 nM.
In the case of B19, the IC50 came to 0.8 nM.

The target in a further test is T1, human Protein S. The test can be described thus: LANCE competition. The source holds these as a separate data set. In a few lines:
as §1
Take B13: the IC50 was determined as 0.6 nM. In other words, the sub-nanomolar range.

For a further test, the target named is T2, human Protein S. As to the kind of experiment: LANCE TR-FRET competition; Eu-labeled Protein S; competitor tracer JBS0684. As to the method: Peptides also were characterized in a competition, homogenous europium-based TR-FRET assay (LANCE IC50 assay) using JBS0684 as a tracer (i.e., competitor for Protein S binding). The following reagents were mixed together in a Perkin-Elmer ProxiPlate MTP well (indicated concentration is the final concentration): Eu-labeled Protein S (10 nM), Ulight™-labeled Streptavidin (100 nM), tracer (JBS0684 (300 nM)), and peptide (titrated in three-fold dilution steps). The final volume was 50 μl/well. The reaction mix was incubated for 1 hour at room temperature, then the fluorescence emission at 665 nm was recorded on a multi-mode reader (SpectraMax® M5, Molecular Devices) using the following instrument settings: Ex 340 nm, Em 665 nm, delay 50 μsec, integration 100 μsec, reads 100. Binding of tracer peptides to soluble europium-labeled Protein S was detected by Streptavidin labeled with an acceptor fluorophor (ULight™). Inhibition of tracer-binding to Protein S by a non-biotinylated peptide results in a decrease of TR-FRET between the Eu-labeled Protein S and ULight™-labeled Streptavidin. IC50 values were obtained from peptide titration curves at constant tracer concentration using non-linear regression of the fluorescence emission signals at 665 nm.
Several peptides having multiple substitutions in the JBS2572 amino acid sequence were synthesized and evaluated using LANCE IC50 and CAT assays described above. For the assays, pooled normal plasma was supplemented with 3 nM APC and triggered with 6 pM TF, and 15 μM phospholipids (DOPC/POPS 80/20). Stock APC was diluted with TF-PL-MIX to 24 nM (plasma concentration: 3 nM).
B20 returned an IC50 of 1.6 nM.
In the case of B21, the IC50 was determined as 1.8 nM.
With B5, the IC50 is 2.5 nM.
The molecule B7 gave a half-maximal inhibitory concentration (IC50) of 2.2 nM.
As to B8, the half-maximal inhibitory concentration (IC50) came to 2 nM.
In turn, B9 displayed an IC50 of 1.8 nM.
Regarding B22, the IC50 worked out at 1.6 nM.
With B23, the IC50 was found to be 2.8 nM.
B24: the IC50 was 6.1 nM. This IC50 is about 2.2-fold higher than that of the molecule before.
B25: the IC50 is 2.5 nM. Compared with the last molecule, the IC50 is about 2.4-fold lower.
With B10, the IC50 was determined as 1.9 nM.

The next test has as its target T2, human Protein S. The test can be described thus: cell-based or functional assay.
Take B20: the “CAT EC50” value worked out at 129 nM.
In the case of B21, the “CAT EC50” value was 127 nM.
Still for that read-out and setting: for B5 the value was 116 nM.
Same read-out and setting: to B7 belongs 155 nM; to B8, 139 nM.
For B9, the “CAT EC50” value turned out to be 122 nM.
With B22, the “CAT EC50” value was determined as 147 nM.
Turning to B23, the “CAT EC50” value was determined as 117 nM.
Same read-out and setting: for B24 the value was 146 nM; for B25, 149 nM; for B10, 127 nM.
